According to patent US20240108738A1, “BICYCLIC PEPTIDE LIGANDS SPECIFIC FOR NK CELLS” (Bicycle Tx Limited, priority 2021, published 2024):

Target: human CD16a F176 variant, biotinylated (human) (UniProt P08637)
Assay: AlphaScreen competition: 10 nM C-terminally biotinylated CD16a F176, mouse IgG2a-conjugated acceptor beads as competed ligand

human CD16a F176 variant, biotinylated (human), sequence (P08637 17-208 limits assumed, change not shown): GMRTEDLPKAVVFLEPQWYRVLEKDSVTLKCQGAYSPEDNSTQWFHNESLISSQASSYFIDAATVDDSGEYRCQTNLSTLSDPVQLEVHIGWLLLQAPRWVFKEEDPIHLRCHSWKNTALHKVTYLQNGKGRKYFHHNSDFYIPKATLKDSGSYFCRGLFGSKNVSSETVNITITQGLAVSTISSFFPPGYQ

IC50 (read off the curve): 50 nM
Substance: IgG positive control (antibody)
